# According to publication PMC2033760, “Interleukin 1 modulates growth of human renal carcinoma cells in vitro” (British Journal of Cancer, 1995):
# T1: IL-1 receptor type I (human (endogenous in A-498), UniProt P14778 18-569)
# T1 construct: In the functional row on Caki-2 cells the endogenous receptor of those cells is meant; it was not detected there directly; also called IL-1 receptor type I (80 kDa); source: endogenous, on A-498 cells
# T1 sequence (looked up): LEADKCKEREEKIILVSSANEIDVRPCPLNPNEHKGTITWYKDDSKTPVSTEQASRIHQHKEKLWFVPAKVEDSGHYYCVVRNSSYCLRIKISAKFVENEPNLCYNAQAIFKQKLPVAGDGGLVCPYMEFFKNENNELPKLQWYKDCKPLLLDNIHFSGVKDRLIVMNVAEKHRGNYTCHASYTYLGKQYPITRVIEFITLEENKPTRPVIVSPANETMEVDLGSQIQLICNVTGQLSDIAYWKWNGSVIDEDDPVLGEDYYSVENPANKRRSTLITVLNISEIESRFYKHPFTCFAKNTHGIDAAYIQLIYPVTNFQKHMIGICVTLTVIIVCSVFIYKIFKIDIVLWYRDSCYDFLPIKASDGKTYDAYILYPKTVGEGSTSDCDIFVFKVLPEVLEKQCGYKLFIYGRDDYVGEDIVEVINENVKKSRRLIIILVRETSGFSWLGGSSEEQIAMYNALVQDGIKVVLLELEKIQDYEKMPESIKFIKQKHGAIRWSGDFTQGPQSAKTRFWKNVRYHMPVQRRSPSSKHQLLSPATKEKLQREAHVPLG
# B1: [125I]IL-1 alpha (ligand, UniProt P01583 113-271, looked up)
# chain: SAPFSFLSNVKYNFMRIIKYEFILNDALNQSIIRANDQYLTAAALHNLDEAVKFDMGAYKSSKDDAKITVILRISKTQLYVTAQDEDQPVLLKEMPEIPKTITGSETNLLFFWETHGTKNYFTSVAHPNLFIATKQDYWVCLAGGPPSITDFQILENQA
# modifications: 125I label (radioiodinated)
# notes: interleukin 1 alpha, the 17 kDa form as printed; also called radiolabelled interleukin 1 alpha; source: bought: Amersham-Buchler
# Biological target: T1, IL-1 receptor type I
# Assay: radioligand binding; [125I]IL-1 alpha at increasing concentrations (direct) or at 80 pM with increasing unlabelled IL-1 alpha (competition) on subconfluent A-498 cells in 24-well plates; cells washed with binding medium pH 3.0 for 30 s beforehand; binding medium with 20 mM HEPES pH 7.0; 3 h at 4 C; Scatchard analysis, two classes of binding sites
# Settings: one partner purified
binder,measurement,value
B1,KD of the high-affinity sites,45 pM
same,KD of the low-affinity sites,1.3 nM
